Measurements reported in patent US20130108641A1 (Sanofi, published 2013).
Numbering of substitutions follows the chain as printed. Blank lines part the entries; values can stand above or below the binder they belong to.

Columns and labels:
[1] = molecular target: T1, cynomolgus monkey GITR-Fc (cynomolgus monkey); assay: SPR; KD on cGITR-Fc over KD on hGITR-Fc
T1 construct: extracellular domain; also called cGITR-FC; cGITR
Protocol: (§1) The binding kinetics of several anti-GITR antibodies to recombinant human GITR (hGITR) and cynomolgus monkey GITR (cGITR) were determined by surface plasmon resonance assay using a BIAcore 2000 (BIAcore Inc., […].). Briefly, a CM5 BIAcore biosensor chip was docked into the instrument and activated with 250 μL of 1:1 NHS/EDC at room temperature. A rabbit anti-mouse Fc IgG1 mAb (BIAcore #BR-1005-14) (13.5 μg/mL in 0.05M acetate buffer, pH 5) was immobilized on the activated chips in Flow cell 1. The immobilization was carried out at a flow rate of 5 μL/min. The chip was then blocked by injection of 55 μL of ethanolamine-HCl, pH 8.5, followed by five washes with 50 mM NaOH, 1M NaCl. To measure the binding of anti-GITR mabs to the human GITR protein or cyno GITR protein, antibodies were used at 2 μg/mL in BIAcore running buffer (HBS-EP). Antigens (human GITR or cyno GITR) were injected from 3 to 1000 nM. Following completion of the injection phase, dissociation was monitored in a BIAcore running buffer at the same flow rate for 360 sec. The surface was regenerated between injections using 30 μL of 50 mM NaOH-1 M NaCl. Individual sensorgrams were analyzed using […].

[2] = molecular target: T2, human GITR-Fc fusion protein (human, UniProt Q9Y5U5 26-162); assay: SPR (BIAcore 2000), mAb captured on anti-mouse Fc, antigen injected
T2 construct: extracellular domain; also called hGITR-Fc; recombinant human GITR-Fc; not shown: Fc part
T2 sequence (looked up): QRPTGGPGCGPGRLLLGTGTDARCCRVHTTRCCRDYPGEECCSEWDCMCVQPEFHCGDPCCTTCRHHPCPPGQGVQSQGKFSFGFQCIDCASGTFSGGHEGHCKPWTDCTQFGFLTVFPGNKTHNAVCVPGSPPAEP
Protocol: as §1

[3] = molecular target: T1, cynomolgus monkey GITR-Fc; assay: as above
Protocol: as §1

[4] = molecular target: T3, human GITR expressed on cells (human, UniProt Q9Y5U5 26-241); assay: Meso Scale assay, Sulfo-conjugated antibody on coated HEK293-Trex-hGITR cells
T3 construct: whole, on cells; Used for HEK293 transfectants and for PHA-stimulated human PBMCs; also called hGITR; cell surface hGITR
T3 sequence (looked up): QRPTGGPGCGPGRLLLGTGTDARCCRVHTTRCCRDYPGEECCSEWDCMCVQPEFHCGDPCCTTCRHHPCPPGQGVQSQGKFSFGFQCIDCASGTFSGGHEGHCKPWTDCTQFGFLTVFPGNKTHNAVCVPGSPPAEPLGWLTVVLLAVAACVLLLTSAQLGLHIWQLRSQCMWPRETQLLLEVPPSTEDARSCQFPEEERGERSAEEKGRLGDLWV
Protocol: The binding kinetics of anti-GITR antibodies to hGITR expressed on the surface of HEK293 cells were determined by Meso Scale assay. HEK293-Trex-hGITR cells (#2404) were coated at 25000 cells/well on a 96-well High Bind plate (MSD L15XB-3) for 2 hours at room temperature. Wells were washed 2 times with 150 μl/well of PBS and blocked with 150 μl/well of blocking solution for 30 min at room temperature. Following two washes with 150 μl/well of PBS, 25 μL/well of Sulfo-conjugated antibodies were added in 2-fold serial dilutions starting at 100 μg/ml up to 12 dilutions in assay diluent and incubated for 45 min at room temperature followed by two washes with PBS. The antibody binding was evaluated by adding 150 μl/well 1× Read buffer T without surfactant and read using the Mesoscale instrument.

[5] = molecular target: T2, human GITR-Fc fusion protein; assay: competition ELISA, GITRL coated, GITR-Fc 0.25 µg/mL pre-incubated with antibody
Protocol: The ability of anti-GITR antibodies to inhibit the binding of human GITRL to hGITR was assessed using a competition ELISA. Ninety-six well plates were coated with GITR-Ligand protein at 0.5 μg/well at 4° C., overnight. Wells were washed with washing buffer (PBS pH 7.4+0.05 Tween 20) and blocked with 200 μL of blocking buffer (PBS pH 7.4+0.05% Tween 20+1% BSA) for 1 hour at room temperature. Wells were then washed two times with washing buffer and exposed to 100 μL of pre-incubated mixtures of GITR-Fc at 0.25 μg/mL plus anti-GITR antibody in 2-fold serial dilutions starting at 10 μg/ml up to 12 dilutions for 1 hour at room temperature with agitation. Plates were washed four times with washing buffer and GITR-Ligand-bound recombinant human GITR-Fc was detected with the use of peroxidase-conjugated goat anti-human IgG-Fc (Sigma), followed by incubation with the TMB substrate (Interchim)
All antibodies generated using the methods disclosed herein were able to antagonize the binding of GITRL to GITR more potently than the prior art MAB689 antibody.

[6] = molecular target: T3, human GITR expressed on cells; assay: cell-based or functional assay
[7] = molecular target: T3, human GITR expressed on cells; assay: FACS, Alexa488-labeled antibody on PHA-stimulated human PBMCs
Protocol: (§2) Specifically, human or cynomolgus monkey peripheral blood mononuclear cells were isloated and diluted to 2×10^6/ml in RPMI-1640 medium containing 10% FBS. The cells were then stimulated with 5 ug/ml phytohaemagglutinin (PHA) for 72 hours in 6 well plates. […] The cells were then washed 2 times with FACS stain buffer (Becton Dickinson) and then co-stained with 50 ul of CD4-APC for 20 minutes in the dark at 4° C. The cells were then washed again 2 times with FACS stain buffer before being resuspended in 150 μL of FACS stain buffer (Becton Dickinson) and analyzed using a FACS Calibur instrument. from which binding curves were generated. Equilibrium dissociation constants (KD) for each antibody were determined from the binding curves.

[8] = molecular target: T4, cynomolgus monkey GITR on PBMCs (cynomolgus monkey); assay: FACS, Alexa488-labeled antibody on PHA-stimulated cynomolgus monkey PBMCs
T4 construct: whole, on cells; also called cynoGITR-expressing PBMCs
Protocol: as §2

Ratio cKD/hKD [1]: 5.3
Kd [2]: 5.95 nM
koff [2]: 0.000221 s⁻¹
Kd [3]: 31.8 nM
koff [3]: 0.000662 s⁻¹
Kd [4]: 7.24 nM
IC50 [5]: 2.82 nM
B1: anti-GITR antibody clone 706 (antibody, V domains shown)
VH: EVQLQQSGTVLARPGASVKMSCEASGYSFTTYWMHWIKQRPGQGLEWIGAIYPGNSDTGYNQKFKGKAKLTAVTSASTAYMELSSLTNEDSAVYYCTRTSTYPHFDYWGQGTTLTVSS
VL: DILLTQSPAILSVSPGERVSFSCRASQSIGTSIHWYQQRTNGSPRLLIKYASESISGIPSRFSGSGSGTDFTLNINSVESEDIADYYCQQTNNWPLTFGAGTKLELK
notes: Murine hybridoma antibody; also called 706-GITR2; 706 GITR-2

Ratio cKD/hKD [1]: 5.3
Kd [2]: 1.84 nM
koff [2]: 7.44e-05 s⁻¹
Kd [3]: 9.68 nM
koff [3]: 0.00021 s⁻¹
Kd [4]: 5.38 nM
IC50 [5]: 3.76 nM
B2: anti-GITR antibody clone 1649 (antibody, V domains shown)
VH: B1 VH with R13G, A16T, M34I, T58A, T99S
VL: B1 VL with G42D
notes: Murine hybridoma antibody; also called 1649-GITR2; 1649 GITR-2

Ratio cKD/hKD [1]: 5.5
Kd [2]: 6.67 nM
koff [2]: 0.000224 s⁻¹
Kd [3]: 36.8 nM
koff [3]: 0.000707 s⁻¹
Kd [4]: 6.8 nM
IC50 [5]: 1.9 nM
B3: anti-GITR antibody clone 698 (antibody, V domains shown)
VH: B1 VH with S77T, N88D
VL: B1 VL with T91S
notes: Murine hybridoma antibody; also called 698-GITR2; 698 GITR-2

Ratio cKD/hKD [1]: 4.7
Kd [2]: 4.43 nM
koff [2]: 0.000177 s⁻¹
Kd [3]: 20.9 nM
koff [3]: 0.000473 s⁻¹
Kd [4]: 4.44 nM
IC50 [5]: 2.5 nM
B4: anti-GITR antibody clone 827 (antibody, V domains shown)
VH: B1 VH with A24T, M34I, G49A, A50T, T58A, K65R, T99S
VL: B1 VL with G42D
notes: Murine hybridoma antibody; also called 827-GITR2; 827 GITR-2

IC50 of dose-dependent inhibition of NFkB signal transduction (luciferase reporter) [6]: 0.15 nM
Ratio cKD/hKD [1]: 2.3
Kd [7]: 0.476 nM
Kd [2]: 0.99 nM
koff [2]: 0.000508 s⁻¹
Kd [3]: 2.27 nM
koff [3]: 0.00123 s⁻¹
Kd [8]: 0.353 nM
Kd [4]: 0.35 nM
IC50 [5]: 0.96 nM
B5: anti-GITR antibody clone 2155 (murine) (antibody, V domains shown)
VH: EVKLVESGGGLVKPGGSLKLSCGASGFTISSYAMSWVRQSPEKRLEWVAIISTGGSTYYPDSVRGRFTISRDNARNSLYLQMSSLRSEDTAMYYCARVGGYYDSMDHWGQGTSVTVSS
VL: not shown
notes: Murine hybridoma antibody

Ratio cKD/hKD [1]: 1.3
Kd [7]: 4.13 nM
Kd [2]: 2.57 nM
koff [2]: 0.00038 s⁻¹
Kd [3]: 3.35 nM
koff [3]: 0.000345 s⁻¹
Kd [4]: 0.857 nM
IC50 [5]: 1.02 nM
B6: anti-GITR antibody clone 1718 (antibody, V domains shown)
VH: QVQVQQSGPELVKPGASVRISCKASDYTFTNYYIHWVRQRPGQGLEWLGWIYPGKGYTNYNEKFKGKATLTADKSSSTAYMQFSSLTSEDSAVYFCASGYGNYYFPYWGQGTLVTVSA
VL: IQMTQSSSYLSVSLGGRVTITCKASDHIKNWLAWYQQKPGNVPRLLMSAATSLETGFPSRFSGSGSGKDFTLTITSLQTEDVATYYCQQYWSTPWTFGGGTKLEIK
notes: Murine hybridoma antibody; also called 1718-GITR2; 1718 GITR-2
